According to patent US20080125364A1, “Methods and Compositions for Treating Epithelial Cancers” (priority 2004, published 2008):

B1: claudin-1: tight junction protein claudin-1 force-expressed in Pa4-Raf1 cells (protein, UniProt O95832 1-211, looked up)
Claudin-1: MANAGLQLLGFILAFLGWIGAIVSTALPQWRIYSYAGDNIVTAQAMYEGLWMSCVSQSTGQIQCKVFDSLLNLSSTLQATRALMVVGILLGVIAIFVATVGMKCMKCLEDDEVQKMRMAVIGGAIFLLAGLAILVATAWYGNRIVQEFYDPMTPVNARYEFGQALFTGWAAASLCLLGGALLCCSCPRKTTSYPTPRPYPKPAPSSGKDYV
B2: Occ: full-length human occludin with C-terminal myc-tag, stably expressed in Raf1-transformed Pa4 cells (protein, UniProt Q16625 1-522, looked up)
chain: MSSRPLESPPPYRPDEFKPNHYAPSNDIYGGEMHVRPMLSQPAYSFYPEDEILHFYKWTSPPGVIRILSMLIIVMCIAIFACVASTLAWDRGYGTSLLGGSVGYPYGGSGFGSYGSGYGYGYGYGYGYGGYTDPRAAKGFMLAMAAFCFIAALVIFVTSVIRSEMSRTRRYYLSVIIVSAILGIMVFIATIVYIMGVNPTAQSSGSLYGSQIYALCNQFYTPAATGLYVDQYLYHYCVVDPQEAIAIVLGFMIIVAFALIIFFAVKTRRKMDRYDKSNILWDKEHIYDEQPPNVEEWVKNVSAGTQDVPSPPSDYVERVDSPMAYSSNGKVNDKRFYPESSYKSTPVPEVVQELPLTSPVDDFRQPRYSSGGNFETPSKRAPAKGRAGRSKRTEQDHYETDYTTGGESCDELEEDWIREYPPITSDQQRQLYKRNFDTGLQEYKSLQSELDEINKELSRLDKELDDYREESEEYMAAADEYNRLKQVKGSADYKSKKNHCKQLKSKLSHIKKMVGDYDRQKT
modifications: full-length C-terminal myc-tag
notes: full-length human occludin with C-terminal myc-tag, stably expressed in Raf1-transformed Pa4 cells

Assays:
Pa4-Raf1 cells [1] = experiment: Oligonucleotide microarray comparison of mRNA abundance; assay type: cell-based, rat; conditions: for correction of Raf1-driven gene expression changes (mRNA abundance): forced expression in Pa4-Raf1 cells
Text: Based upon internal quality control data, differential expression values greater than 1.5 obtained with Agilent Oligonucleotide microarrays are likely to be significant. Using this benchmark, we compared microarray data for entire rat genome obtained from Pa-4 cells before and after stable transfection with constitutively active Raf1 (Pa4-Raf1). […] Genes affected by active Raf1 in Pa4 cells included transcription factors, response elements, regulatory molecules, growth factor receptors, cell-cell contact proteins, and cytoskeletal elements that were consistent with those identified in other studies examining epithelial cell gene modulation associated with Ras/Raf/MAP kinase pathway activation. The strongest mRNA abundance profile shifts occurred in genes associated with cell polarity, proliferation and sensitivity to apoptotic stimuli. Numerous genes identified by the present studies have been previously reported as being targets of cell regulation in other cancer cell microarray studies.

Pa4-Raf1 cells [2] = experiment: Cloning efficiency (anchorage-independent growth) in soft agarose; assay type: cell-based, rat; conditions: Pa4-Raf1 cells expressing the construct, 4 weeks, colonies >0.4 mm counted
Experimental: Pa4 cells, Pa4-Raf1 cells and Pa4-Raf1 cells expressing full-length occludin or various occludin mutants were seeded a density of 1×10^4 cells per 35-mm culture dish in 1 ml of 0.35% (wt/vol) low melting point agarose solution diluted with complete medium. Dishes were coated with 1 ml of 0.7% (wt/vol) low melting point agarose before cell plating, and 1 ml of overlay medium was added after cell plating. The dishes were incubated at 35° C. in 5% CC>2 and 95% air for 4 weeks. The overlay medium was changed every 3 days. After 4 weeks, the cells were stained with 3-[4,5-dimethylthiazol-2-yl]-2,5-diphenyltetrazolium bromide (MTT; 0.05 mg/ml). The stained dishes were photographed, and colonies >0.4 mm in diameter were counted and analyzed.

Pa4-Raf1 cells [3] = experiment: Phase contrast and immunofluorescence microscopy of cell morphology and junctional proteins; assay type: cell-based, rat; conditions: Pa4-Raf1 cells expressing the construct, grown on plastic
Experimental: Cells grown on glass coverslips or on polycarbonate filters (NK, Costar, Cambridge, Mass., US) with a pore size of 0.4 μm were rinsed with HBSS containing calcium and magnesium (HBSS^+). Cells were fixed and permeabilized in absolute methanol for 20 min at −20° C., followed by blocking in HBSS^+ containing 5% normal goat serum (blocking buffer) for 1 h at room temperature and incubation for 60 min with primary antibodies to human occludin, claudin-1, and ZO-1, (Zymed Laboratories, San Francisco, Calif.), E-cadherin (BD Biosciences) in blocking buffer. Cells were then washed, incubated for 60 min with Alexa dye-conjugated secondary antibodies (Molecular Probes, Eugene, Oreg.), followed by rinsing and mounting on slides with PROLONG ANTIFADE medium (Molecular Probes). For double labeling of junctional proteins, cells were fixed and permeabilized in absolute methanol and blocked in blocking buffer. Cells were sequentially stained with two primary antibodies. Donkey anti-goat and anti-rabbit antibodies conjugated to fluorescent red or green Alexa dyes (Molecular Probes) were used for detection of the respective primary antibodies. Stained cells were scanned using a Zeiss LSM510 laser scanning confocal microscope (Zeiss Microimaging Inc., Thornwood, N.Y.) coupled to a Zeiss 100M axiovert and 40× or 63× Pan-Apochromat oil lenses. […]

Pa4-Raf1 cells [4] = experiment: Transepithelial electrical resistance (TER) of monolayers on filter supports; assay type: cell-based, rat; conditions: Pa4-Raf1 cells expressing the construct, after 5 days of culture on semi-permeable filter supports
Experimental: (§1) For transepithelial electrical resistance (TER) measurements, cells were plated on polycarbonate filters with a pore size of 0.4 μm. A Millicell-ERS volt-ohm meter (Millipore) was used to determine the TER value. All TER values were normalized for the area of the filter and were obtained by subtracting the contribution of the filter and bathing solution. Paracellular permeability to fluoresceinated dextran (FD-3; MW 3000) was assessed according to previously published methods (Sanders et al., 1995). Briefly, cells were grown on polycarbonate filters with a pore size of 0.4 μm. TER was measured and then cells were washed in Hanks balanced salt solution/10 mM HEPES (HBSS^+) and equilibrated at 37° C. for 10 min on an orbital shaker. Cells were loaded apically with 1 mg/ml FD-3 (Molecular Probes) at time=0. Basolateral samples were taken at t=0, 30, 60, 90 and 120 minutes, and fluorescence intensity was analyzed on a CytoFluor 2350 Fluorescence Measurement System (Millipore, Cambridge, Mass.). FD-3 concentrations transported were extrapolated from a standard curve (generated by diluting known concentrations of fluorescent tracer) and expressed as ng FD-3 transported/cm^2/hour. Numerical values from individual experiments were pooled and expressed as mean ±standard error of the mean. Data shown are representative of at least three experiments.

Pa4-Raf1 cells [5] = experiment: Paracellular permeability to FD-3 (3 kDa FITC-dextran); assay type: cell-based, rat; conditions: Pa4-Raf1 cells expressing the construct
Experimental: as §1

Pa4-Raf1 cells [6] = experiment: Tumorigenicity in nude mice; assay type: in vivo; conditions: Pa4-Raf1 cells expressing the construct, injected subcutaneously, 6 weeks post injection
Experimental: The nude mice were used to assay tumorigenicity in vivo. Pa4 cells, Pa4-Raf1 cells and Pa4-Raf1 cells expressing fall-length occludin or various occludin mutants were grown to logarithmic growth phase, harvested, washed, and resuspended in PBS for injection. Each of the cell lines (1×10^6 cells in 200 μl PBS) was injected subcutaneously into the flanks of four male nude mice. Tumor formation was monitored daily. All nude mice were sacrificed at six weeks, with tumors being isolated and analyzed.

Row | Molecule | correction of Raf1-driven gene expression changes (mRNA abundance) (Pa4-Raf1 cells [1]) | average number of colonies on soft agarose (Pa4-Raf1 cells [2]) | rescue of epithelial cell morphology (Pa4-Raf1 cells [3]) | rescue of epithelial cell morphology (Pa4-Raf1 cells [3]; listed as full-length occludin) | growth factor binding protein mRNA up-regulation (Pa4-Raf1 cells [1]; Pa4 Raf1 cells, forced occludin expression) | aquaporin-1 mRNA levels (Pa4-Raf1 cells [1]; Raf1-induced nearly 4-fold increase) | correction of Raf1 gene modifications of Table 1 (Pa4-Raf1 cells [1]; genes of Table 1) | REX-3 mRNA abundance (Pa4-Raf1 cells [1]; up-regulated 37-fold by Raf1) | transepithelial electrical resistance (TER) (Pa4-Raf1 cells [4]) | FD-3 flux rate (Pa4-Raf1 cells [5]) | tumor formation (Pa4-Raf1 cells [6])
1 | B1 | fails to affect correction of gene modifications | – | – | – | – | – | – | – | – | – | –
2 | B2 | remarkable reversal of essentially all of the genomic changes | 5 colonies | recovered epithelial morphology | tightly clustered colonies | 35 fold | corrected | corrected | down-regulated by occludin to an equivalent extent | > 900 O-cm^2 | −1,500 ng/cm^2/hr | failed to produce tumors
